# Measured values from patent US20250281611A1 (BIOSCEPTRE AUST, published 2025).
# B1: CD19 BRIDGE variant B20 (Fab, V domains shown)
# VH: EVQLVESGGGLVKPGGSLKLSCAASGYTFTSYVMHWVRQAPGKGLEWIGYINPYNDGTKYNEKFQGRVTISSDKSISTAYMELSSLRSEDTAMYYCARGTYYYGTRVFDYWGQGTLVTVSS
# VL: DIVMTQSPATLSLSPGERATLSCRSSKSLQNVNGNTYLYWFQQKPGQSPQLLIYRMSNLNSGVPDRFSGSGSGTEFTLTISSLEPEDFAVYYCMQHLEYPITFGAGTKLEIKR
# B2: CD19 BRIDGE variant B25 (Fab, V domains shown)
# VH: B1 VH
# VL: B1 VL
# B3: CD19 BRIDGE variant B21 (Fab)
# heavy: EVQLVESGGGLVKPGGSLKLSCAASGYTFTSYVMHWVRQAPGKGLEWIGYINPYNDGTKYNEKFQGRVTISSDKSISTAYMELSSLRSEDTAMYYCARGTYYYGTRVFDYWGQGTLVTVSSASTKGPSVFPLAPSSKSTSGGTAALGCLVKDYFPEPVTVSWNSGALTSGVHTFPAVLQSSGLYSLSSVVTVPSSSLGTQTYICNVNHKPSNTKVDKKVEPKSCHHHHHH
# light: DFPGHNYTTRNILPGLNITSGGGGSEPKSSDKTHTDIVMTQSPATLSLSPGERATLSCRSSKSLQNVNGNTYLYWFQQKPGQSPQLLIYRMSNLNSGVPDRFSGSGSGTEFTLTISSLEPEDFAVYYCMQHLEYPITFGAGTKLEIKRTVAAPSVFIFPPSDEQLKSGTASVVCLLNNFYPREAKVQWKVDNALQSGNSQESVTEQDSKDSTYSLSSTLTLSKADYEKHKVYACEVTHQGLSSPVTKSFNRGEC
# B4: CD19 BRIDGE variant B22 (Fab)
# heavy: B3 heavy
# light: DFPGHNYTTRNILPGLNITSTFHKTSGSGKEPKSSDKTHTDIVMTQSPATLSLSPGERATLSCRSSKSLQNVNGNTYLYWFQQKPGQSPQLLIYRMSNLNSGVPDRFSGSGSGTEFTLTISSLEPEDFAVYYCMQHLEYPITFGAGTKLEIKRTVAAPSVFIFPPSDEQLKSGTASVVCLLNNFYPREAKVQWKVDNALQSGNSQESVTEQDSKDSTYSLSSTLTLSKADYEKHKVYACEVTHQGLSSPVTKSFNRGEC
# B5: CD19 BRIDGE variant B23 (Fab)
# heavy: B3 heavy
# light: DFPGHNYTTRNILPGLNITSTFHKTSGSGKGSEPKSSDKTHTDIVMTQSPATLSLSPGERATLSCRSSKSLQNVNGNTYLYWFQQKPGQSPQLLIYRMSNLNSGVPDRFSGSGSGTEFTLTISSLEPEDFAVYYCMQHLEYPITFGAGTKLEIKRTVAAPSVFIFPPSDEQLKSGTASVVCLLNNFYPREAKVQWKVDNALQSGNSQESVTEQDSKDSTYSLSSTLTLSKADYEKHKVYACEVTHQGLSSPVTKSFNRGEC
# B6: CD19 BRIDGE variant B28 (Fab)
# heavy: B3 heavy
# light: DFPGHNYTTRNILPGLNITSTFHKTSGSGKEPKSSDKTHTGSDIVMTQSPATLSLSPGERATLSCRSSKSLQNVNGNTYLYWFQQKPGQSPQLLIYRMSNLNSGVPDRFSGSGSGTEFTLTISSLEPEDFAVYYCMQHLEYPITFGAGTKLEIKRTVAAPSVFIFPPSDEQLKSGTASVVCLLNNFYPREAKVQWKVDNALQSGNSQESVTEQDSKDSTYSLSSTLTLSKADYEKHKVYACEVTHQGLSSPVTKSFNRGEC
# B7: CD19 BRIDGE variant B24 (Fab)
# heavy: B3 heavy
# light: DFPGHNYTTRNILPGLNITSTFHKTSGSGKGGGGSEPKSSDKTHTDIVMTQSPATLSLSPGERATLSCRSSKSLQNVNGNTYLYWFQQKPGQSPQLLIYRMSNLNSGVPDRFSGSGSGTEFTLTISSLEPEDFAVYYCMQHLEYPITFGAGTKLEIKRTVAAPSVFIFPPSDEQLKSGTASVVCLLNNFYPREAKVQWKVDNALQSGNSQESVTEQDSKDSTYSLSSTLTLSKADYEKHKVYACEVTHQGLSSPVTKSFNRGEC
# B8: CD19 BRIDGE variant B26 (Fab, V domains shown)
# VH: B1 VH
# VL: B1 VL
# B9: CD19 BRIDGE variant B27 (Fab)
# heavy: B3 heavy
# light: DFPGHNYTTRNILPGLNITSGGGGSEPKSSDKTHTGSDIVMTQSPATLSLSPGERATLSCRSSKSLQNVNGNTYLYWFQQKPGQSPQLLIYRMSNLNSGVPDRFSGSGSGTEFTLTISSLEPEDFAVYYCMQHLEYPITFGAGTKLEIKRTVAAPSVFIFPPSDEQLKSGTASVVCLLNNFYPREAKVQWKVDNALQSGNSQESVTEQDSKDSTYSLSSTLTLSKADYEKHKVYACEVTHQGLSSPVTKSFNRGEC
# Target: T1, nfP2X7 CAR 1
# T1 construct: CAR-positive cells gated by the co-expressed EGFR marker; also called nfP2X7 targeted CAR; nfP2X7 CAR on EGFR+ T cells
# Test: flow cytometry, nfP2X7 CAR 1 T cells (EGFR+ gate), anti-His-FITC detection
row,Binder,MFI HisTag FITC in EGFR+ Population
1,B1,2.11
2,B2,2.28
3,B3,2.19
4,B4,2.21
5,B5,2.34
6,B6,2.24
7,B7,2.13
8,B8,2.17
9,B9,2.35

# Target: T1, nfP2X7 CAR 1
# Test: flow cytometry, anti-His-FITC, MFI on EGFR+ (CAR+) over EGFR- (CAR-) T cells
# In short: (§1)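 CAR T cells incubated with BRiDGE variants at saturating concentrations; bound BRiDGE detected with anti-His-FITC by flow cytometry. EGFR marks CAR expression. Value is median fluorescence intensity on EGFR+ (CAR+) cells divided by that on EGFR− (CAR−) cells.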
row,Binder,HisTag MFI Ratio of EGFR+/EGFR-
1,B1,4.1
2,B2,4
3,B3,4.1
4,B4,4
5,B5,4.4
6,B6,4.2
7,B7,3.9
8,B8,4.2
9,B9,4.1

# Target: T1, nfP2X7 CAR 1
# Test: flow cytometry, anti-His-FITC, MFI on EGFR+ (CAR+) T cells over background 0.44
# In short: as §1
row,Binder,HisTag MFI Ratio (background 0.44)
1,B1,4.8
2,B2,5.2
3,B3,5
4,B4,5
5,B5,5.3
6,B6,5.1
7,B7,4.8
8,B8,4.9
9,B9,5.3

# Target: T2, CD19 (UniProt P15391 20-556, limits assumed)
# T2 construct: whole, on cells; also called CD19 on JeKo-1
# T2 sequence (looked up): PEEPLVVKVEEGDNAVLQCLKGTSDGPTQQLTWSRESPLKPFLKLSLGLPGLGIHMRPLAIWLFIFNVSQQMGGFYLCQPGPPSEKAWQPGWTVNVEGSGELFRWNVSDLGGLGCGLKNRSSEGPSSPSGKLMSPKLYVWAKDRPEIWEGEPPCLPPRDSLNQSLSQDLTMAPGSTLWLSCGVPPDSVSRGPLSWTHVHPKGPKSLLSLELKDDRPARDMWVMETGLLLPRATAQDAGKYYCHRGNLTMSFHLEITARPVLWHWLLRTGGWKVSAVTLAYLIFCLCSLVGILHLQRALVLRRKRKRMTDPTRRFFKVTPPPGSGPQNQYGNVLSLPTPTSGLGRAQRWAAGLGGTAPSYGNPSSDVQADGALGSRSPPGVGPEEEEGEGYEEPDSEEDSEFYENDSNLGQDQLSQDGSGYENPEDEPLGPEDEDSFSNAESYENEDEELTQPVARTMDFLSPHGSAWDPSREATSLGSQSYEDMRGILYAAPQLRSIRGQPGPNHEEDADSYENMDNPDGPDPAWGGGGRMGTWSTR
# Test: flow cytometry, JeKo-1 cells, BIL03s-AF647 detection, MFI over no-bridge control
# Protocol: (§2) JeKo-1 cells were incubated with different CD19 BRiDGE variants at saturating concentrations. […] The MFI intensity correlates with the number of secondary bound antibodies bound to the CD19 BRiDGE variants that are only detected if they are bound to the JeKo-1 cells. MFI: median fluorescence intensity. BLitz: Bio-Layer interferometry (BLI) technology using HIS-tag identification tips. […] The higher the MFIR, the stronger the binding.
row,Binder,MFIR BIL03 AF647
1,B1,9.07
2,B2,10.9
3,B3,8.83
4,B4,10.5
5,B5,14.8
6,B6,19.1
7,B7,18.4
8,B8,12
9,B9,20.9

# Target: T2, CD19
# Test: flow cytometry, JeKo-1 cells, bridge at saturating conc., BIL03s-AF647 detection
# Protocol: as §2
row,Binder,MFI Bil03 AF647
1,B1,4.17
2,B2,5
3,B3,4.06
4,B4,4.85
5,B5,6.82
6,B6,8.78
7,B7,8.45
8,B8,5.53
9,B9,9.6

# Target: T2, CD19
# Test: flow cytometry, JeKo-1 cells, anti-His-FITC detection, MFI over no-bridge control
# Protocol: as §2
row,Binder,MFIR HisTag FITC
1,B1,3.39
2,B2,3.01
3,B3,3.32
4,B4,3.3
5,B5,3.1
6,B6,3.09
7,B7,3.21
8,B8,3.06
9,B9,3.25

# Target: T2, CD19
# Test: flow cytometry, JeKo-1 cells, bridge at saturating conc., anti-His-FITC detection
# Protocol: as §2
row,Binder,MFI HisTag FITC
1,B1,2.61
2,B2,2.32
3,B3,2.56
4,B4,2.54
5,B5,2.39
6,B6,2.38
7,B7,2.47
8,B8,2.36
9,B9,2.5
